The results in this text go back to publication PMC4038064.

Experiment [1] deals with Neuropilin-1 domains b1b2 (Nrp1-b1b2). The experiment is described as follows: in vitro plate binding assay.
For experiment [2] the target is unchanged. As to the kind of experiment: in vitro plate binding assay. This is another data set of the same source.
Experiment [3] has the same target. The experiment is described as follows: ITC. On the technique in general: Isothermal titration calorimetry measures the heat released or taken up as one component is titrated into another.

Where two headings read alike, the source gives them in different places.

“Sema3E.3 peptide (Sema3E, furin cleavage site 3)” gave a half-inhibitory concentration (IC50) in experiment [1] of 0.76 µM.
For “Sema3A.2 peptide (Sema3A, furin cleavage site 2)”, the IC50 in experiment [1] came out at 34 µM.
For the molecule WDQKKPRNRR [Sema3F C-terminal peptide, wild type (S3F-RR)], the IC50 in experiment [2] was 11 µM. In experiment [3], the dissociation constant Kd is 33 µM, the dH was -18.5 kcal/mol and the stoichiometry N is 1.
Turning to WDQKKPRNPR [Sema3F C-terminal peptide, C-1 proline variant (S3F-PR)], in experiment [2], the half-maximal inhibitory concentration (IC50) was determined as 4.7 µM. Further, in experiment [3], the Ka was found to be 101000 M⁻¹, the equilibrium dissociation constant (Kd) amounted to 10 µM, the dH was -17 kcal/mol and the stoichiometry N came out at 1.
For WDQKKPRNDR [Sema3F C-terminal peptide, C-1 aspartate variant (S3F-DR)], the IC50 in experiment [2] was 28 µM.

The IC50 is the concentration that inhibits the measured activity by half. The low end stands for inhibition by little substance, the high end for a need for much substance. The term Kd denotes the free concentration of one partner at which half of the binding sites on the other are occupied at equilibrium, for simple one-to-one binding. Lower therefore signals higher affinity. A word on the stoichiometry N: it is the number of molecules, sites or subunits per partner or assembly.
